Measured values from patent US20140294863A1, “SERUM ALBUMIN BINDING PEPTIDES FOR TUMOR TARGETING” (GENENTECH, INC., priority 2002, published 2014).
Bridges are numbered along the chain shown (N, C = ends). Where no end group is shown, it is not given here.

Experiments:
[1] = target: T1, rat albumin (Rattus norvegicus, UniProt P02770); conditions: FIG. 3
[2] = target: T2, rabbit albumin (Oryctolagus cuniculus, UniProt P49065); conditions: FIG. 3
[3] = target: T2, rabbit albumin; assay: Direct Binding ELISA, AB.Fab variants on immobilized rabbit albumin; parameters: purchased Sigma; conditions: average and SD of at least 3 determinations
Method: (§1) Mouse, rat, or rabbit albumin (Sigma, St. Louis, Mo.) were immobilized onto NUNC Maxisorp™ 96-well plates at 2 ug/ml overnight at 4° C. […] AB.Fab variants were serially diluted in binding buffer and added at 100 μl per well to the immobilized albumin for 30 minutes at 25° C. Unbound AB.Fab variant was removed by washing wells with 0.05% PBS/Tween® 20 and bound AB.Fab variant was detected with goat anti-human Fab′2-HRP for 1 hour at 25° C. Bound HRP was measured with a solution of tetramethylbenzidine (TMB)/H202. After 15 minutes, the reaction was quenched by the addition of 1M phosphoric acid.
(§2) Initially we explored binding of the AB.Fab variants to immobilized albumin using a Direct Binding ELISA.

[4] = target: T1, rat albumin; assay: Solution Binding ELISA, AB.Fab variants with soluble rat albumin; parameters: purchased Sigma; conditions: Rat Albumin, soluble; Scatchard; average and SD of at least 3 determinations; read-out: Solution Binding ELISA (Kd)
[5] = target: T1, rat albumin; assay: Direct Binding ELISA, AB.Fab variants on immobilized rat albumin; parameters: purchased Sigma; conditions: average and SD of at least 3 determinations
Method: as §1, §2

[6] = target: T3, mouse albumin (Mus musculus, UniProt P07724); assay: Direct Binding ELISA, AB.Fab variants on immobilized mouse albumin; conditions: average and SD of at least 3 determinations
T3 construct: purchased Sigma
T3 sequence (P07724 25-608): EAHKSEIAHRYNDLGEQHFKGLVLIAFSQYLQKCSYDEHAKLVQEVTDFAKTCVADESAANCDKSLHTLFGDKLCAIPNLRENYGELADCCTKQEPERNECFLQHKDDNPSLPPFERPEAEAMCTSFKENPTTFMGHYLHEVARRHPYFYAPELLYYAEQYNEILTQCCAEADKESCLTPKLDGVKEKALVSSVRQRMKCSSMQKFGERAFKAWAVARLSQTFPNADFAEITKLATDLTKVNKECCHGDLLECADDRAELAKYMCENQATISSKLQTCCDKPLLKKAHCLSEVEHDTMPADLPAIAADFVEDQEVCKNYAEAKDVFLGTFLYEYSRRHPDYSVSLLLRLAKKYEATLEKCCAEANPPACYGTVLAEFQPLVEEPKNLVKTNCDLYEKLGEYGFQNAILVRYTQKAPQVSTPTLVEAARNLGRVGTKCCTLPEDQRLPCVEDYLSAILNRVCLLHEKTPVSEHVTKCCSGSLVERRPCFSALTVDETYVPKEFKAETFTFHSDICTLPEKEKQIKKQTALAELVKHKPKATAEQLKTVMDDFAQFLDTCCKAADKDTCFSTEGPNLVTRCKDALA
Method: as §1, §2

[7] = in vivo; cited from earlier work
[8] = in vivo; cited from earlier work; remark: listed apart in the source
[9] = in vivo; cited from earlier work; remark: listed apart in the source
[10] = in vivo; cited from earlier work; remark: listed apart in the source
[11] = test system: TF and albumin; assay: biotin-TF binding assay (fusion on immobilized albumin detected with biotinylated TF); conditions: FIG. 8
Excerpt: Purified D3H44 fusions retained their ability to bind TF as measured using a FX activation assay (FIG. 5), and a prothrombin time assay that measures prolongation of tissue factor dependent clotting (FIG. 6). The assay methods are described, for example, in Dennis et al., 2000, Nature 404: 465. […] Further, each of the albumin-binding fusions bound TF and albumin simultaneously. […] In this assay, binding of the D3H44 fusions to immobilized albumin was detected with biotinylated TF.

[12] = Pharmacokinetics of D3H44 variants in rabbits (TF binding ELISA); format: in vivo, rabbit; parameters: V1 Avg (Historical): unit not given here
Method: D3H44 variants were administered to rabbits as a 0.5 mg/kg bolus injection into the marginal ear vein. Each test group consisted of 3 rabbits (5 rabbits were used in the F(ab′)2 group). Serum samples were taken at the indicated time points, serially diluted, and the concentration of D3H44 was determined using a TF binding ELISA.
Pharmacokinetic analysis was performed using the test article plasma concentrations. Group mean plasma data for each test article conforms to a multi-exponential profile when plotted against the time post-dosing. The data were fit by a standard two-compartment model with bolus input and first-order rate constants for distribution and elimination phases. The general equation for the best fit of the data for i.v. administration was: c(t)=Ae^−αt+[…], where c(t) is the plasma concentration at time t, A and B are intercepts on the Y-axis, and α and β are the apparent first-order rate constants for the distribution and elimination phases, respectively. The α-phase is the initial phase of the clearance and reflects distribution of the protein into all extracellular fluid of the animal, whereas the second or β-phase portion of the decay curve represents true plasma clearance. Methods for fitting such equations are well known in the art. For example, A=D/V(α−k21)/(α−β), B=D/V (β−k21)/(α−β), and α and β (for α>β) are roots of the quadratic equation: r^2+(k12+k21+k10)r+k21k10=0 using estimated parameters of V=volume of distribution, k10=elimination rate, k12=transfer rate from compartment 1 to compartment 2 and k21=transfer rate from compartment 2 to compartment 1, and D=the administered dose.
Data analysis: Graphs of concentration versus time profiles were made using KaleidaGraph (KaleidaGraph™ V. 3.09 Copyright 1986-1997. Synergy Software. Reading, Pa.). Values reported as less than reportable (LTR) were not included in the PK analysis and are not represented graphically. Pharmacokinetic parameters were determined by compartmental analysis using WinNonlin software (WinNonlin® Professional V. 3.1 WinNonlin™ Copyright 1998-1999. Pharsight Corporation. Mountain View, Calif.). Pharmacokinetic parameters were computed as described in Ritschel W A and Kearns G L, 1999, IN: Handbook Of Basic Pharmacokinetics Including Clinical Applications, 5th edition, American Pharmaceutical Assoc., Washington, D.C.

[13] = Summarized Pk Data (Historical)

T1 sequence (P02770 25-608): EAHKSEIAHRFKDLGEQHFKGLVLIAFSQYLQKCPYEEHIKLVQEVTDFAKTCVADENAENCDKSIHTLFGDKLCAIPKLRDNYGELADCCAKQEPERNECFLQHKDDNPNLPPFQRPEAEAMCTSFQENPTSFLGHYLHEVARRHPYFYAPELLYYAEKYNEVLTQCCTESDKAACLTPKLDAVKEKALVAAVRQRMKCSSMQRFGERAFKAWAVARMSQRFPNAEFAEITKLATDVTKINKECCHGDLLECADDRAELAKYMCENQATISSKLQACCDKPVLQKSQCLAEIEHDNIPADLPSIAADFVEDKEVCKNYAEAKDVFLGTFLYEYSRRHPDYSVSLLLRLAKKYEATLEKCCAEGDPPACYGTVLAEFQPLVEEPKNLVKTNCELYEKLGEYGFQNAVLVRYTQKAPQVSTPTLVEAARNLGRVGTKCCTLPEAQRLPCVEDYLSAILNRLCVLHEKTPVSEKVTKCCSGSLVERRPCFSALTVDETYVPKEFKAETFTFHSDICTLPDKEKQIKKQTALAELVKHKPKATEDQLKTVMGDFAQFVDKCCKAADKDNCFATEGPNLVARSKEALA
T2 sequence (P49065 25-608): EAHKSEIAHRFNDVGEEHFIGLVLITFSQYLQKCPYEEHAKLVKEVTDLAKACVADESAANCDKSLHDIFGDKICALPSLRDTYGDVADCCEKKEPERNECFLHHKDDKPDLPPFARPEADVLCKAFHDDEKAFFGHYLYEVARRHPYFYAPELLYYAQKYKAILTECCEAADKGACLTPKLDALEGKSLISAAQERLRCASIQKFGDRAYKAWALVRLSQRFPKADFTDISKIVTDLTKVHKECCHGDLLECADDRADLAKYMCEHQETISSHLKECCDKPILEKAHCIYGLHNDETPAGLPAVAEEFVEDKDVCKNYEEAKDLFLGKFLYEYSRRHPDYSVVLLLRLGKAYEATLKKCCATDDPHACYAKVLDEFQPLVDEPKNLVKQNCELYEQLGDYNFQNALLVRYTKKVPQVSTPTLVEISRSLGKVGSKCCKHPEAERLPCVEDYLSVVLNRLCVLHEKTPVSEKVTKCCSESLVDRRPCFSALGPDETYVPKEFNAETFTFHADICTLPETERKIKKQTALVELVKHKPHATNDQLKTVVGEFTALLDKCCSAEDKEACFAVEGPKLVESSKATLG

With `CC[C@H](C)[C@H](NC(=O)[C@H](CC(C)C)NC(=O)CNC(=O)[C@H](CCC(N)=O)NC(C)=O)C(=O)NCC(=O)N[C@@H](CC(=O)O)C(=O)N[C@H](C(=O)N[C@H]1CSSC[C@@H](C(=O)N[C@@H](CC(C)C)C(=O)N[C@@H](Cc2c[nH]c3ccccc23)C(=O)NCC(=O)N[C@@H](CC(=O)O)C(=O)N[C@@H](CO)C(=O)N[C@H](C(=O)N[C@@H](CCCCN)C(N)=O)C(C)C)NC(=O)CNC(=O)[C@H](Cc2c[nH]c3ccccc23)NC(=O)[C@H](CCCNC(=N)N)NC(=O)[C@@H]2CCCN2C(=O)[C@H](CC(C)C)NC1=O)[C@@H](C)CC` [SA08] the “inhibition of RD phage binding to rat albumin” value [1] was “clearly blocked” and the “inhibition of BA phage binding to rabbit albumin” value [2] was “clearly blocked”.

In the case of “4D5-H11: AB.Fab variant made by deletion in 4D5-H4 (Table 12) (DICLPRWGCL; disulfide 3-9 (inferred); also: part of Fab heavy chain)”, the EC50 [3] is reported as over 2000 nM, the Kd [4] is reported as 2430 ± 320 nM and the EC50 [5] is reported as over 1000 nM. For the same molecule, the EC50 [6] was over 2000 nM.

For albumin, the half-life in rabbit [7] is listed as 133 h, the half-life in man [8] is listed as 456 h and the half-life in mouse [9] is listed as 24 h. The half-life in rat [10] was 45.6 h.

With “D3H44-Fab: Fab fragment of D3H44, a humanized antibody that binds human tissue factor (TF)” the “simultaneous binding of TF and albumin” value [11] was “did not bind albumin”, the “AUC Avg (Historical)” value [12, 13] was 9800 ng·h/mL and the “AUC/Dose Avg (Historical)” value [12, 13] was 19.7 (hr * ug/mL)(/(mg/kg). For the same molecule, the “CL Avg (Historical)” value [12, 13] was 0.863 mL/min/kg, the “K10-HL Avg (Historical)” value [12, 13] was 0.760 hr and the “V1 Avg (Historical)” value [12, 13] was 55.9. For the same molecule, the “Vss Avg (Historical)” value [12, 13] was 0.127 L/kg, the “AUC Avg” value ([12]; rabbit, 0.5 mg/kg bolus i.v.) was 5860 ng·h/mL and the “AUC/Dose Avg” value ([12]; rabbit, 0.5 mg/kg bolus i.v.) was 14.8 (hr * ug/mL)/(mg/kg). The “Cmax Avg” value ([12]; rabbit, 0.5 mg/kg bolus i.v.) was 5000 ng/mL, the “MRT Avg” value ([12]; rabbit, 0.5 mg/kg bolus i.v.) was 3.07 h and the “V1* Avg (initial distribution volume)” value ([12]; rabbit, 0.5 mg/kg bolus i.v.) was 0.0906 L/kg.
